From patent US20070134256A1 (US Dept. of Health and Human Services, published 2007)
Like-named read-outs stand apart in the source and are kept apart here.

Legend:
[1] = molecular target: T1, dengue type 1 virus (DENV-1), Western Pacific strain, virions (dengue type 1 virus, UniProt P17763 281-775; P17763 115-280); assay: ELISA, virion-coated plate, Fab from ~140 µg/ml
[2] = molecular target: T2, dengue type 4 virus (DENV-4), strain 814669, virions (dengue type 4 virus, UniProt P09866 280-774; P09866 114-279); assay: ELISA, virion-coated plate, Fab from ~140 µg/ml
[3] = molecular target: T3, dengue type 3 virus (DENV-3), strain H87, virions (dengue type 3 virus, UniProt P27915 281-773; P27915 115-280); assay: ELISA, virion-coated plate, Fab from ~140 µg/ml
[4] = molecular target: T4, dengue type 2 virus (DENV-2), prototype New Guinea C strain, virions (dengue type 2 virus, UniProt P14340 281-775; P14340 115-280); assay: ELISA, virion-coated plate, Fab from ~140 µg/ml
[5] = molecular target: T5, DENV-4 mutant containing Leu107Phe (dengue type 4 virus, UniProt P09866 280-774); assay: ELISA Kd
T5 construct: Mutant virus; also called mutant Leu107Phe

[6] = molecular target: T2, dengue type 4 virus (DENV-4), strain …; assay: ELISA Kd
[7] = molecular target: T5, DENV-4 mutant containing Leu107Phe; assay: cell-based or functional assay
[8] = molecular target: DENV-2 NGB-V2/DENV-4 chimera (dengue type 2 virus); assay: cell-based or functional assay
[9] = molecular target: chimeric DENV-2 (NGB-P)/DENV-4 (dengue type 2 virus); assay: cell-based or functional assay
[10] = molecular target: T2, dengue type 4 virus (DENV-4), strain …; assay: cell-based or functional assay
[11] = molecular target: T6, DENV-2 antigenic variant NGB-V1 (dengue type 2 virus); assay: cell-based or functional assay
[12] = molecular target: DENV-2 NGB-V1/DENV-4 chimera (dengue type 2 virus); assay: cell-based or functional assay
[13] = molecular target: DENV-2 New Guinea C (NGC) parent virus, mouse-adapted (dengue type 2 virus, UniProt P14340 281-775); assay: cell-based or functional assay
[14] = molecular target: T7, DENV-2 antigenic variant NGB-V2 (dengue type 2 virus); assay: cell-based or functional assay
[15] = molecular target: WNV/DENV-4 chimera (West Nile virus); assay: cell-based or functional assay
[16] = molecular target: T6, DENV-2 antigenic variant NGB-V1; assay: ELISA Kd against parental DENV-2 NGB
[17] = molecular target: T7, DENV-2 antigenic variant NGB-V2; assay: ELISA Kd against parental DENV-2 NGB
[18] = molecular target: T6, DENV-2 antigenic variant NGB-V1
[19] = molecular target: T7, DENV-2 antigenic variant NGB-V2
[20] = molecular target: T1, dengue type 1 virus (DENV-1), Western …; assay: cell-based or functional assay
[21] = molecular target: T2, dengue type 4 virus (DENV-4), strain …; assay: cell-based or functional assay; remark: listed apart in the source
[22] = molecular target: T3, dengue type 3 virus (DENV-3), strain …; assay: cell-based or functional assay
[23] = molecular target: T4, dengue type 2 virus (DENV-2), prototype …; assay: cell-based or functional assay
[24] = molecular target: T2, dengue type 4 virus (DENV-4), strain …; assay: cell-based or functional assay; remark: listed apart in the source
[25] = molecular target: T1, dengue type 1 virus (DENV-1), Western …; assay: ELISA, virion-coated plate, Fab from ~300 µg/ml
[26] = molecular target: T2, dengue type 4 virus (DENV-4), strain …; assay: ELISA, virion-coated plate, Fab from ~300 µg/ml
[27] = molecular target: T3, dengue type 3 virus (DENV-3), strain …; assay: ELISA, virion-coated plate, Fab from ~300 µg/ml
[28] = molecular target: T4, dengue type 2 virus (DENV-2), prototype …; assay: ELISA, virion-coated plate, Fab from ~300 µg/ml
[29] = molecular target: T8, DENV-4 E glycoprotein (dengue type 4 virus, UniProt P09866 280-774); assay: radioimmunoprecipitation
T8 construct: also called vDENV-4 E product

[30] = molecular target: DENV-4 prM glycoprotein (dengue type 4 virus, UniProt P09866 114-279); assay: radioimmunoprecipitation of prM expressed alone by recombinant vaccinia virus
[31] = molecular target: T1, dengue type 1 virus (DENV-1), Western …; assay: ELISA, virion-coated plate
[32] = molecular target: T3, dengue type 3 virus (DENV-3), strain …; assay: ELISA, virion-coated plate
[33] = molecular target: T4, dengue type 2 virus (DENV-2), prototype …; assay: ELISA, virion-coated plate
[34] = molecular target: T8, DENV-4 E glycoprotein; assay: radioimmunoprecipitation of E expressed alone by recombinant vaccinia virus
[35] = molecular target: T1, dengue type 1 virus (DENV-1), Western …; assay: ELISA, virion-coated plate; remark: listed apart in the source
[36] = molecular target: T3, dengue type 3 virus (DENV-3), strain …; assay: ELISA, virion-coated plate; remark: listed apart in the source
[37] = molecular target: T4, dengue type 2 virus (DENV-2), prototype …; assay: ELISA, virion-coated plate; remark: listed apart in the source

B1: chimpanzee Fab 1A5 (Fab, V domains shown)
VH: EVQLLESGGGLVQPGGSRRLSCAASGFTISDNVMHWVRQAPGKGLEWVALIYSADTTHYADSVKGRFTISRDNSKNTLYLQMDSLRPEDTAVYYCAREYCTGDTCFAHFDYWGQGTLVSVSS
VL: ELQMTQSPSSVSASVGDTVTIACRASQSITNYLSWYQQKPGKAPKLLIYHASTLQSGIPSRFSGSGSGTDFTLTISSLQPDDFATYYCHYGYGTHTFGQGTKLEIKR
With B1 the “ELISA titer of Fab binding” value [1] was 4.1 log10 of reciprocal dilution, the “ELISA titer of Fab binding” value [2] was 3.8 log10 of reciprocal dilution and the “ELISA titer of Fab binding” value [3] was 3.8 log10 of reciprocal dilution. For the same binder, the “ELISA titer of Fab binding” value [4] was 3.8 log10 of reciprocal dilution, the Kd [5] was 3.07 nM and the Kd [6] was 0.65 nM. For the same binder, the PRNT50 titer [7] was ~50 µg/mL, the PRNT50 titer [8] was > 70 µg/mL and the PRNT50 titer [9] was 0.64 µg/mL. The PRNT50 titer [10] was 4.3 µg/mL, the PRNT50 titer [11] was 12 µg/mL and the PRNT50 titer [12] was 31.7 µg/mL. The PRNT50 titer [13] was 0.89 µg/mL, the PRNT50 titer [14] was > 70 µg/mL and the PRNT50 titer [15] was 4.8 µg/mL. For the same binder, the “Affinity Reduction (fold)” value [16] was 1.6 fold, the “Affinity Reduction (fold)” value [17] was 80.3 fold and the Kd [18] was 0.75 nM. For the same binder, the Kd [19] was 37.8 nM, the “PRNT50 titer” value [20] was 0.49 µg/mL and the “PRNT50 titer” value [21] was 4.23 µg/mL. For the same binder, the “PRNT50 titer” value [22] was 3.49 µg/mL and the “PRNT50 titer” value [23] was 0.77 µg/mL.

B2: chimpanzee Fab 5A7 (Fab, V domains shown)
VH: EVQLLESGGGLVQPGGSLRLSCAASGVTFSSYWMHWVRQAPGKGLEWVSRINSDGSSTNYADSVEGRFTISRDNAKNTLYLQMNSLRAEDTAVYYCSRGGLWDWSPRRIEETKTPFDYWGQGTLVTVSS
VL: ELTQGPATLSLSPGERATLSCRAGQSLDSSLLSWYQQKPGQAPRLLMYDASTRAPGVPARFSGSGSGTDFTLTISSLQPEDFAVYYCQQHYNLPRTFGQGTKLEIKR
B2 was tested, and the “PRNT50 titer” value [24] was > 200 µg/mL, the “ELISA titer of Fab binding” value [25] was 2.51 log10 of reciprocal dilution and the “ELISA titer of Fab binding” value [26] was 3.41 log10 of reciprocal dilution. For the same binder, the “ELISA titer of Fab binding” value [27] was 2.51 log10 of reciprocal dilution, the “ELISA titer of Fab binding” value [28] was 2.51 log10 of reciprocal dilution and the binding result [29] was “no binding”.

B3: chimpanzee Fab 5D9 (Fab, V domains shown)
VH: EVQLLESGPGLVKPSETLSLTCTVSGGSISDFYWSWLRQSPGKGLEWIGVAHSRVSAYYNPSLKSRVTISVDTSKNQLSLRLSAVTAADAALYYCARQGTGTTGVSEDPFDLWGQGTKVIVSL
VL: ELTQSPSSLSASVGDRVTITCRASQGISNRLNWYQQKPGQGPKFLMYDASSLVSGVPSRFSGSGSGTDFTLTISSLQPEDFAVYYCQQFNSYPLTFGGGTKLEIKR
B3 was tested, and the “PRNT50 titer” value [24] was 0.58 µg/mL, the binding result [30] was “no binding” and the “ELISA titer of Fab binding” value [25] was < 1 log10 of reciprocal dilution. For the same binder, the “ELISA titer of Fab binding” value [26] was 3.41 log10 of reciprocal dilution, the “ELISA titer of Fab binding” value [27] was < 1 log10 of reciprocal dilution and the “ELISA titer of Fab binding” value [28] was < 1 log10 of reciprocal dilution. B3: no binding [31]; no binding [32]; no binding [33].

B4: chimpanzee Fab 5H2 (Fab, V domains shown)
VH: EVQLLESGPGLVKPSETLSLTCTVSGGSISDFYWSWLRQSPGKGLEWIGYAHSRVSAYYNPSLKSRVTISVDTSKNQLSLRLSAVTAADTALYYCARQGTGTTGVSEDPFDLWGQGTKVIVSL
VL: ELQMTQSPSSLSASVGDRVTITCRASQDISIRLNWYQQKPGKAPKLLIYDASTLESGVPSRFSGSGSGTDFTLTISSLQPEDFATYYCQQFNSYPLTFGGGTKVEIKR
For B4, the “ELISA titer of Fab binding” value [1] was < 1 log10 of reciprocal dilution, the “ELISA titer of Fab binding” value [3] was < 1 log10 of reciprocal dilution and the “ELISA titer of Fab binding” value [4] was < 1 log10 of reciprocal dilution. The “ELISA titer of Fab binding” value [25] was < 1 log10 of reciprocal dilution, the “ELISA titer of Fab binding” value [27] was < 1 log10 of reciprocal dilution and the “ELISA titer of Fab binding” value [28] was < 1 log10 of reciprocal dilution. B4: binds [34]; no binding [35]; no binding [36]. B4: no binding [37].
